Measured values reported in publication PMC9606368, “Membrane mediated phase separation of the bacterial nucleoid occlusion protein Noc” (Scientific Reports, 2022).

Experiments:
[1] = molecular target: T1, nucleoid occlusion protein Noc (wild type) (Bacillus subtilis (strain 168), UniProt P37524); test: QCM-D on SLB; FtsZ GTPase assay; non-phase-separated Noc; FtsZ is up-concentrated only in Noc condensates
T1 chain: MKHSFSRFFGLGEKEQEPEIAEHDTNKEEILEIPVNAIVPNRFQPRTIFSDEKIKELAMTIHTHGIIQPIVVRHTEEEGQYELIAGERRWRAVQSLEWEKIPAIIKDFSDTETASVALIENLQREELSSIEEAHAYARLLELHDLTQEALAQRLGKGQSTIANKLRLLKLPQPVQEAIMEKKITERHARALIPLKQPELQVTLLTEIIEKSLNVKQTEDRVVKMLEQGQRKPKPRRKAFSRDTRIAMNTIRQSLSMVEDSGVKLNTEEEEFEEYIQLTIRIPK

[2] = molecular target: T1, nucleoid occlusion protein Noc (wild …); test: MST; non-phase-separated Noc; labelled FtsZ strongly partitions into Noc condensates once Noc phase separates
[3] = molecular target: T2, nucleoid occlusion protein Noc (wild type) (B. subtilis, UniProt P37524 1-283); test: recruitment to GUV membranes (confocal microscopy); 3 µM unlabelled WT Noc added to Atto488-Noc R89A and GUVs (70:30 POPC:POPG); the mutant alone at 4 µM with 1 mM CTP and 1.5 µM dsNBS does not bind the GUV; settings: both partners purified
T2 construct: Nucleoid occlusion protein Noc, a ParB-like protein of B. subtilis; In the microscopy with FtsZ the legends say only 'Noc'; part of it may have been the KCK-tagged, Atto488-labelled form; also called WT Noc; wildtype Noc; source: E. coli Rosetta (DE3), purified (HisTrap, Heparin HP, Superdex-75)
T2 sequence (looked up): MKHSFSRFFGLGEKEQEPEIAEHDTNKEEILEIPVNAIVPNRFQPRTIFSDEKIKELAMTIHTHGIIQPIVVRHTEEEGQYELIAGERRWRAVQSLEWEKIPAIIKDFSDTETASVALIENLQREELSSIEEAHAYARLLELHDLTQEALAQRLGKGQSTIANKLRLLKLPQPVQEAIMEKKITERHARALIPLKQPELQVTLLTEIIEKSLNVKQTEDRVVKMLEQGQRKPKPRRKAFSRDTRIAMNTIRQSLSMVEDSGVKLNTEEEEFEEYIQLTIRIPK

B1: B. subtilis FtsZ (protein)
chain: MLEFETNIDGLASIKVIGVGGGGNNAVNRMIENEVQGVEYIAVNTDAQALNLSKAEVKMQIGAKLTRGLGAGANPEVGKKAAEESKEQIEEALKGADMVFVTAGMGGGTGTGAAPVIAQIAKDLGALTVGVVTRPFTFEGRKRQLQAAGGISAMKEAVDTLIVIPNDRILEIVDKNTPMLEAFREADNVLRQGVQGISDLIATPGLINLDFADVKTIMSNKGSALMGIGIATGENRAAEAAKKAISSPLLEAAIDGAQGVLMNITGGTNLSLYEVQEAADIVASASDQDVNMIFGSVINENLKDEIVVTVIATGFIEQEKDVTKPQRPSLNQSIKTHNQSVPKREPKREEPQQQNTVSRHTSQPADDTLDIPTFLRNRNKRG
B1: no binding [1].

B2: B. subtilis FtsZ labelled with Alexa-Fluor 647 NHS ester (protein)
chain: MLEFETNIDGLASIKVIGVGGGGNNAVNRMIENEVQGVEYIAVNTDAQALNLSKAEVKMQIGAKLTRGLGAGANPEVGKKAAEESKEQIEEALKGADMVFVTAGMGGGTGTGAAPVIAQIAKDLGALTVGVVTRPFTFEGRKRQLQAAGGISAMKEAVDTLIVIPNDRILEIVDKNTPMLEAFREADNVLRQGVQGISDLIATPGLINLDFADVKTIMSNKGSALMGIGIATGENRAAEAAKKAISSPLLEAAIDGAQGVLMNITGGTNLSLYEVQEAADIVASASDQDVNMIFGSVINENLKDEIVVTVIATGFIEQEKDVTKPQRPSLNQSIKTHNQSVPKREPKREEPQQQNTVSRHTSQPADDTLDIPTFLRNRNKRG
modifications: Alexa-Fluor 647 NHS ester
B2: no binding [2].

B3: Atto488-Noc R89A (non-CTP-binding mutant, KCK-tagged, labelled) (natural protein, B. subtilis, UniProt P37524 1-283, looked up)
chain: MKHSFSRFFGLGEKEQEPEIAEHDTNKEEILEIPVNAIVPNRFQPRTIFSDEKIKELAMTIHTHGIIQPIVVRHTEEEGQYELIAGERAWRAVQSLEWEKIPAIIKDFSDTETASVALIENLQREELSSIEEAHAYARLLELHDLTQEALAQRLGKGQSTIANKLRLLKLPQPVQEAIMEKKITERHARALIPLKQPELQVTLLTEIIEKSLNVKQTEDRVVKMLEQGQRKPKPRRKAFSRDTRIAMNTIRQSLSMVEDSGVKLNTEEEEFEEYIQLTIRIPK
modifications: Atto488 maleimide on cysteine (KCK tag)
notes: Nucleoid occlusion protein Noc of B. subtilis with R89A; Labelling efficiency of ~20% is told for KCK-tagged Noc
B3: binds [3].
